Here are results for one molecule from patent publication US20200277385A1.

Assay [1] has as its target human CD303 antigen expressed on cells (human) (UniProt Q8WTT0). Kind of assay: cell-based or functional assay.
Assay [2] shares this target. The experiment in a line: flow cytometry on CAL-1 cells (experiment with BIIB059). (In general: Flow cytometry measures light scatter and fluorescence of single cells or particles in a stream.)
The target is the same in assay [3]. The experiment in a line: flow cytometry on CAL-1 cells transfected with CD303 (about 40,000-50,000 CD303/cell).

Chain of human CD303 antigen expressed on cells (human) (Q8WTT0 whole entry): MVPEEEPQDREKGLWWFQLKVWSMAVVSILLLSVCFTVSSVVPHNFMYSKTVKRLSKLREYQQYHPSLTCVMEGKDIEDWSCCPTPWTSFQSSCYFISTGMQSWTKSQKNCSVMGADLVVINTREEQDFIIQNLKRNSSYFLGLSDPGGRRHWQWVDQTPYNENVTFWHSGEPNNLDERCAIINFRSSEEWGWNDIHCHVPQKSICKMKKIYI

B1: humanized antibody BIIB059 (antibody, INN chains, looked up, V domains shown)
VH: DVQLVESGGGLVKPGGSLRLSCAASGFTFSTYTMSWVRQAPGKGLEWVATISPGDSFGYYYPDSVQGRFTISRDNAKNSLYLQMNSLRAEDTAVYYCTRDIYYNYGAWFAYWGQGTLVTVSS
VL: DIQLTQSPSSLSASVGDRVTITCKASQSVDYDGDSYMNWYQQKPGKAPKLLIYAASTLESGVPSRFSGSGSGTDFTLTISSLQPEDFATYYCQQANEDPRTFGQGTKVEIK
In general, EC50 refers to the concentration at which the effect is half-maximal. B1: the ADCC Emax (% lysis), CAL-1 target cells in assay [1] worked out at 1.12 % lysis. Besides, in assay [2], the Bmax (MFI) was 11.8 MFI and the EC50 is 0.6 µg/mL. For the same molecule, in assay [3], the Bmax (MFI) stood at 382 MFI and the EC50 came to 0.784 µg/mL.
